Drawing on patent US20250090676A1 (SUTRO BIOPHARMA, published 2025), this text covers Kd, koff and kon for 28 molecules.

The target in the test is T1, human FOLR1-HIS (human, UniProt P15328 25-233).
T1 construct: Analyte of the Biacore assay; also called FolRα-ECD; extracellular domain of FOLR1; not shown: HIS tag
Briefly: SPR (Biacore), antibody captured on anti-Fc, human FOLR1-HIS analyte, 25 C.

Residue numbers refer to the chain shown, from its start.

T1 sequence (P15328 25-233 limits assumed): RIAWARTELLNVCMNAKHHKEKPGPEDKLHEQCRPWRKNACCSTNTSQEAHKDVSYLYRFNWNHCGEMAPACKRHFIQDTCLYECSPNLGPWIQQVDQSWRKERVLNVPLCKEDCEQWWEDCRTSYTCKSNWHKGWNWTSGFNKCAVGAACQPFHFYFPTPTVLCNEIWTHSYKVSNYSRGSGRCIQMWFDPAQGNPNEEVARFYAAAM

B1: SRP1848-G04 (antibody, V domains shown)
VH: EVQLVESGGGLVQPGGSLRLSCAASGFNIHSTDIHWVRQAPGKGLEWVAYITPAGGATFYADSVKGRFTISADTSKNTAYLQMNSLRAEDTAVYYCARYPYWFAGYMDYWGQGTLVTVSS
VL: not shown
notes: IgG with common trastuzumab LC, cell-free expressed, HIS- and FLAG-tagged; also called Antibody 49
For the molecule B1, the affinity, expressed as Kd, was 6.4 nM; the koff was 0.00379 s⁻¹; the kon was determined as 591000 M⁻¹ s⁻¹.

B2: SRP1848-G10 (antibody, V domains shown)
VH: B1 VH with G16S, H30R, F59Y, M107I
VL: not shown
notes: IgG with common trastuzumab LC, cell-free expressed, HIS- and FLAG-tagged; also called Antibody 53
Take B2: the equilibrium dissociation constant (Kd) was determined as 4.55 nM, the koff is 0.00345 s⁻¹ and the association rate constant (kon) came to 758000 M⁻¹ s⁻¹.

B3: SRP1848-G09 (antibody, V domains shown)
VH: B1 VH with H30R, S31G, Y99H, P100E, A104S
VL: not shown
notes: IgG with common trastuzumab LC, cell-free expressed, HIS- and FLAG-tagged; also called Antibody 52
In the case of B3, the Kd came out at 7.56 nM, the koff was determined as 0.00646 s⁻¹ and the kon turned out to be 856000 M⁻¹ s⁻¹.

B4: SRP1848-G07 (antibody, V domains shown)
VH: B1 VH with F59W, Y101F
VL: not shown
notes: IgG with common trastuzumab LC, cell-free expressed, HIS- and FLAG-tagged; also called Antibody 51
Regarding B4, the Kd came out at 7.45 nM, the koff is 0.00451 s⁻¹ and the on-rate constant (kon) is 605000 M⁻¹ s⁻¹.

B5: SRP1848-G06 (antibody, V domains shown)
VH: B1 VH with H30R, F59Y, S63N, Y99Q
VL: not shown
notes: IgG with common trastuzumab LC, cell-free expressed, HIS- and FLAG-tagged; also called Antibody 50
B5 had an equilibrium dissociation constant (Kd) of 6.7 nM, a koff of 0.00381 s⁻¹ and a kon of 569000 M⁻¹ s⁻¹.

B6: SRP1848-G11 (antibody, V domains shown)
VH: B1 VH with H30S, F59W, A104S
VL: not shown
notes: IgG with common trastuzumab LC, cell-free expressed, HIS- and FLAG-tagged; also called Antibody 54
B6 yielded a Kd of 9.14 nM, a koff of 0.00637 s⁻¹ and a kon of 696000 M⁻¹ s⁻¹.

B7: SRP1848-E06 (antibody, V domains shown)
VH: EVQLVESGGGLVQPSGSLRLSCAASGFNINRYYIHWVRQAPGKGLEWVGGITPNDGYTDYADSVEGRFTTSADTSKNTAYLQMNSLRAEDTAVYYCARGTWSWPSGHSYYLDYWGQGTLVTVSS
VL: not shown
notes: IgG with common trastuzumab LC, cell-free expressed, HIS- and FLAG-tagged; also called Antibody 35
Consider B7, for which the Kd stood at 1.63 nM.

B8: SRP1848-D03 (antibody, V domains shown)
VH: EVQLVESGGGVVQPGGSLRLSCAASGFNIRYFSIHWVRQAPGKGLEWVGDIFPNDGSTDYADSVKGRFTISADTSKNTAYLQMNSLRAEETAVYYCARGHWSWPSGYWYYLDYWGQGTLVTVSS
VL: not shown
notes: IgG with common trastuzumab LC, cell-free expressed, HIS- and FLAG-tagged; also called Antibody 25
The molecule B8 showed a Kd of 5.19 nM.

B9: SRP1848-E03 (antibody, V domains shown)
VH: EVQLVESGGGLAQPGGSLRLSCAASGFNIGNYYIHWVRQAPGKGLEWVGGITPRDGFTDYADSVKGRFTISADTSKNTAYLQVNSLRAEDTAVYYCARGSWSWPAGHSYYLDYWGQGTLVTVSS
VL: not shown
notes: IgG with common trastuzumab LC, cell-free expressed, HIS- and FLAG-tagged; also called Antibody 33
Take B9: the Kd came out at 2.67 nM, the off-rate constant (koff) is 0.00183 s⁻¹ and the kon is 688000 M⁻¹ s⁻¹.

B10: SRP1848-D07 (antibody, V domains shown)
VH: EVQLVESGGGLVQPGGSLRLSCAASGFNISKYYIHWVRQAPGKGLEWVGGISPNDGYTDYADSVKGRFAISADTSKNTAYLQMNSLRAEDTAVYYCARGFWAWRSGYGYYLDYWGQGTLVTVSS
VL: not shown
notes: IgG with common trastuzumab LC, cell-free expressed, HIS- and FLAG-tagged; also called Antibody 28
Take B10: the Kd was determined as 4.7 nM, the koff came to 0.00511 s⁻¹ and the kon was 1.09e+06 M⁻¹ s⁻¹.

B11: SRP1848-F02 (antibody, V domains shown)
VH: EVQLVESGGGLVQPGGSLRLSCAASGFNIRTYSIHWVRQAPGKGLEWVGSIFPNDGTTDYADSVKGRLTISADTSKNTAYLQMNSLRAEDTAVYYCARGSWSWQAGYGYYLDYWGQGTLVTVSS
VL: not shown
notes: IgG with common trastuzumab LC, cell-free expressed, HIS- and FLAG-tagged; also called Antibody 38
Molecule B11 gave a Kd of 4.49 nM, a koff of 0.00637 s⁻¹ and a kon of 1.42e+06 M⁻¹ s⁻¹.

B12: SRP1848-E05 (antibody, V domains shown)
VH: B10 VH with L20V, S30G, K31V, S52T, A69T
VL: not shown
notes: IgG with common trastuzumab LC, cell-free expressed, HIS- and FLAG-tagged; also called Antibody 34
The molecule B12 displayed a Kd of 3.51 nM, a koff of 0.00251 s⁻¹ and a kon of 716000 M⁻¹ s⁻¹.

B13: SRP1848-E07 (antibody, V domains shown)
VH: EVQLVESGGGLVQPGGSLRLSCAASGFNIRKSSIHWVRQAPGKGLEWVGEIFPYDGSTDYADNVKGRFTISADTSKNTAYLQMNSLRAEDTAVYYCARGAWSWRSGYGYYIDYWGQGTLVTVSS
VL: not shown
notes: IgG with common trastuzumab LC, cell-free expressed, HIS- and FLAG-tagged; also called Antibody 36
B13 yielded a Kd of 1.91 nM, an off-rate constant (koff) of 0.0024 s⁻¹ and an on-rate constant (kon) of 1.25e+06 M⁻¹ s⁻¹.

B14: SRP1848-F09 (antibody, V domains shown)
VH: B10 VH with K31N, Y32H, N54L, A69T, F100A, A102S, L111I
VL: not shown
notes: IgG with common trastuzumab LC, cell-free expressed, HIS- and FLAG-tagged; also called Antibody 44
The molecule B14 returned a Kd of 4.85 nM, an off-rate constant (koff) of 0.00679 s⁻¹ and a kon of 1.4e+06 M⁻¹ s⁻¹.

B15: SRP1848-F08 (antibody, V domains shown)
VH: EVQLVESGGGLVQPGGSLRLSCAAGGFNISNHSIHWVRQAPGKGVEWVGEIYPVDGITDYADSVKGRFTISADTSKNTAYLRMNSLRAEDTAVYYCARGSWYWQSGYSYYLDYWGQGTLVTVSS
VL: not shown
notes: IgG with common trastuzumab LC, cell-free expressed, HIS- and FLAG-tagged; also called Antibody 43
Take B15: the Kd worked out at 4.58 nM, the off-rate (koff) amounted to 0.00272 s⁻¹ and the kon amounted to 594000 M⁻¹ s⁻¹.

B16: SRP1848-H01 (antibody, V domains shown)
VH: B11 VH with Y32Q, V48I, S50D, N54I, T57I, L68F, Q104P, A105S, Y107M, G108D
VL: not shown
notes: IgG with common trastuzumab LC, cell-free expressed, HIS- and FLAG-tagged; also called Antibody 55
In turn, B16 gave an equilibrium dissociation constant (Kd) of 2.11 nM.

B17: SRP1848-G03 (antibody, V domains shown)
VH: B9 VH with A12V, G30S, N31T, R54S, F68S, V83M, A105S, S108G, Y110F
VL: not shown
notes: IgG with common trastuzumab LC, cell-free expressed, HIS- and FLAG-tagged; also called Antibody 48
Take B17: the equilibrium dissociation constant (Kd) came out at 1.99 nM, the off-rate constant (koff) amounted to 0.00197 s⁻¹ and the association rate constant (kon) came out at 990000 M⁻¹ s⁻¹.

B18: SRP1848-F11 (antibody, V domains shown)
VH: EVQLVESGGGLVQPGGSLRLSCAASGFNISNNYIHWVRQAPGKGLEWVGGITPIDGNTDYADSVKGRFTISADTSMNTAYLQMNSLRAEDTAVYYCARGSWYWRAGYGYYLDYWGQGALVTVSS
VL: not shown
notes: IgG with common trastuzumab LC, cell-free expressed, HIS- and FLAG-tagged; also called Antibody 46
B18 came in with a Kd of 4.71 nM, a koff of 0.0039 s⁻¹ and a kon of 828000 M⁻¹ s⁻¹.

B19: SRP1848-F01 (antibody, V domains shown)
VH: B11 VH with L68F, S102A, Q104R, G108S
VL: not shown
notes: IgG with common trastuzumab LC, cell-free expressed, HIS- and FLAG-tagged; also called Antibody 37
In the case of B19, the Kd came to 3.18 nM, the koff was determined as 0.00362 s⁻¹ and the kon turned out to be 1.14e+06 M⁻¹ s⁻¹.

B20: SRP1848-F05 (antibody, V domains shown)
VH: B13 VH with R30S, F52Y, Y54N, N63S, A100S, S102A, G108S, Y110F, I111L
VL: not shown
notes: IgG with common trastuzumab LC, cell-free expressed, HIS- and FLAG-tagged; also called Antibody 40
The molecule B20 gave a Kd of 2.4 nM, a koff of 0.00157 s⁻¹ and an on-rate constant (kon) of 656000 M⁻¹ s⁻¹.

B21: SRP1848-D09 (antibody, V domains shown)
VH: B10 VH with K31N, A69T, F100S, A102S, S105H
VL: not shown
notes: IgG with common trastuzumab LC, cell-free expressed, HIS- and FLAG-tagged; also called Antibody 29
B21 came in with an equilibrium dissociation constant (Kd) of 10.1 nM, a dissociation rate constant (koff) of 0.0108 s⁻¹ and an on-rate (kon) of 1.07e+06 M⁻¹ s⁻¹.

B22: SRP1848-F06 (antibody, V domains shown)
VH: B10 VH with K31L, Y32S, N54I, Y57N, A69T
VL: not shown
notes: IgG with common trastuzumab LC, cell-free expressed, HIS- and FLAG-tagged; also called Antibody 41
In the case of B22, the dissociation constant (Kd) came to 17 nM, the koff stood at 0.00775 s⁻¹ and the kon was determined as 456000 M⁻¹ s⁻¹.

B23: SRP1848-D10 (antibody, V domains shown)
VH: B13 VH with R30S, K31R, S32N, E50W, F52S, Y54N, S57T, N63S, T74G
VL: not shown
notes: IgG with common trastuzumab LC, cell-free expressed, HIS- and FLAG-tagged; also called Antibody 30
B23 registered a dissociation constant Kd of 4.95 nM, a koff of 0.00558 s⁻¹ and an on-rate constant (kon) of 1.13e+06 M⁻¹ s⁻¹.

B24: SRP1848-F07 (antibody, V domains shown)
VH: B15 VH with G25S, V45L, V54N, R82Q, R87S, Y102D, Q104R
VL: not shown
notes: IgG with common trastuzumab LC, cell-free expressed, HIS- and FLAG-tagged; also called Antibody 42
B24 registered a Kd of 1.56 nM, an off-rate constant (koff) of 0.00249 s⁻¹ and an association rate constant (kon) of 1.6e+06 M⁻¹ s⁻¹.

B25: SRP1848-E02 (antibody, V domains shown)
VH: B13 VH with R30G, S32Y, F52Y, Y54N, S57N, N63S, A100S, I111L
VL: not shown
notes: IgG with common trastuzumab LC, cell-free expressed, HIS- and FLAG-tagged; also called Antibody 32
Molecule B25 gave a dissociation constant (Kd) of 6.21 nM, a koff of 0.00707 s⁻¹ and a kon of 1.14e+06 M⁻¹ s⁻¹.

B26: SRP1848-E01 (antibody, V domains shown)
VH: B9 VH with A12V, G30T, Y32K, R54F, V83M, H107Y, S108G, L111Q
VL: not shown
notes: IgG with common trastuzumab LC, cell-free expressed, HIS- and FLAG-tagged; also called Antibody 31
B26 showed a Kd of 7.87 nM, a koff of 0.00522 s⁻¹ and a kon of 664000 M⁻¹ s⁻¹.

B27: SRP1848-G01 (antibody, V domains shown)
VH: B10 VH with K31R, Y32H, Y33S, G50W, S52A, Y57S, A69T, F100S, G108S, Y110F
VL: not shown
notes: IgG with common trastuzumab LC, cell-free expressed, HIS- and FLAG-tagged; also called Antibody 47
The molecule B27 showed a Kd of 5.09 nM, a dissociation rate constant (koff) of 0.00226 s⁻¹ and a kon of 444000 M⁻¹ s⁻¹.

B28: SRP1848-F10 (antibody, V domains shown)
VH: B11 VH with R30S, T31N, Y32N, T57Y, L68F, S102F, Q104R, A105S
VL: not shown
notes: IgG with common trastuzumab LC, cell-free expressed, HIS- and FLAG-tagged; also called Antibody 45
Regarding B28, binding was characterised by a dissociation constant (Kd) of 2.83 nM, the off-rate constant (koff) was 0.00247 s⁻¹ and the kon came to 872000 M⁻¹ s⁻¹.

Usually Kd stands for the equilibrium constant for the complex coming apart. A word on the koff: it is the rate constant with which the complex falls apart. Lower therefore signals slow dissociation. As usually defined, the kon is the second-order rate constant of association. Higher therefore signals fast association.
